The target of the test is human p33 CDK2 (human) (UniProt P24941).

human cyclin E, sequence (P24864 16-410 limits assumed): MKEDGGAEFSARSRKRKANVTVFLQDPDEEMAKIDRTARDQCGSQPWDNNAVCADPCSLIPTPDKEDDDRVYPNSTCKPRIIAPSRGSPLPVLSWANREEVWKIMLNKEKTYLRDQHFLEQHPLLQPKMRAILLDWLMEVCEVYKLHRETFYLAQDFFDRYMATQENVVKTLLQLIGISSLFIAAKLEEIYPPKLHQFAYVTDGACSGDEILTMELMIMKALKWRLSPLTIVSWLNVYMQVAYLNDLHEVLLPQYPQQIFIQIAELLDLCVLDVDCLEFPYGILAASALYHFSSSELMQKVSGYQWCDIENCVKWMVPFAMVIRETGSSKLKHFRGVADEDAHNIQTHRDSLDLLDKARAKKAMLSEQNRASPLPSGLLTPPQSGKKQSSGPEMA

Substance human cyclin E yielded a CDK2 histone H1 kinase activity in G1 cell extract of 22 fold.

(Values after US5807698.)
